Measurements as given in article PMC11477141, “Chemokine Receptor N-Terminus Charge Dictates Reliance on Post-Translational Modifications for Effective Ligand Capture and Following Boosting by Defense Peptides” (International Journal of Molecular Sciences, 2024).

Experiments:
[1] = system: CCR2; conditions: cited from earlier work
Source text: The reliance on electrostatic interactions between basic amino acids in the chemokine and acidic regions in the receptor N-terminus for chemokine receptor binding is illustrated by a study carried out by Hemmerich et al.. To investigate the influence of charge, hydrophobicity, and aromaticity on binding of CCL2 to its cognate receptor CCR2, this group substituted all surface-exposed residues on CCL2 by alanine. […] In contr ...

[2] = target: T1, CCR5 (Homo sapiens, UniProt P51681); assay: BRET CAMYEL cAMP sensor assay of ligand-induced Gαi signaling via CCR5; type: cell-based; conditions: n = 3; for Gαi signaling via CCR5 in DeltaSia cells compared to WT cells: HEK293 DeltaSia (ST3GAL1/2 KO); for Gαi signaling via CCR5 in sC cells compared to WT cells: HEK293 sC (C1GALT1 KO); for Gαi signaling via M1-CCR5 in DeltaSia and sC cells compared to WT cells: M1-tagged CCR5, HEK293 DeltaSia and sC; for Gαi signaling via CCR5 in DeltaSia and sC cells: HEK293 DeltaSia and sC, CCL5 oligomerization variants experiment; for Gαi signaling via CCR5 compared to WT CCL5: HEK293 WT cells
T1 construct: expressed in transfected cells; host or cells: CHO-K1, CHO-pgsB618 (GAG-minus), HEK293 WT / DeltaSia / sC
Protocol: (§1) For quantification of signaling initiated immediate downstream of receptor activation, we used the cAMP binding CAMYEL sensor to perform bioluminescence resonance energy transfer (BRET)-based assays. Shortly, in this assay increased receptor activation leads to an increase in BRET ratio. For detailed information see the Materials and Methods section.
(§2) In signaling assays testing the boosting ability of basic peptides, transfected cells were aliquoted into 96-well plates in the presence of 10 µM peptide or PBS vehicle. After R-Luc substrate addition, chemokines were added to reach final concentrations ranging from 0–100 nM (0, 0.1, 1, 10, and 100 nM) and forskolin was applied before reading emission at 475 and 525 nm.
(§3) BRET measurements of Gαi signaling and β-arrestin recruitment: Cells were seeded in 6-well plates (500,000 cells/well) and transiently transfected the following day. For BRET measurements of Gαi signaling, cells were transfected with vectors encoding the human chemokine receptors as indicated (160 ng/well) and the CAMYEL sensor (cAMP sensor, YFP-Epac-RLuc) (840 ng/well) using Lipofectamine (6 µL/well). Briefly, DNA was dissolved in 125 µL OPTI-MEM and Lipofectamine was dissolved in 125 µL OPTI-MEM. The DNA and Lipofectamine solutions were combined into a transfection mixture. The transfection mixture was added dropwise to cells incubated in OPTI-MEM (1 mL/well). Transfections were terminated after 5 h by adding 1 mL of fresh culture medium on top of the OPTI-MEM. The following day the cells were loosened from the plates in PBS with 5 mM glucose and subsequently aliquoted in white 96-well iso plates (~25,000 cells/well). When using C21TP variants and defense peptides (hBD2 and histatin), these were added to a final concentration of 10 μM/well, while an equal amount of PBS was added to control cells. The bioluminescence substrate coelenterazine was added to a final conc. of 5 µM. After 10 min, varying ligand concentrations were added. For BRET measurements of Gαi signaling, forskolin was added 5 min after the addition of the ligand, to a final conc. of 5 µM. The plates were kept in the dark at all times. A Perkin Elmer Envision machine was used for measuring the emission signals at 530 and 480 nm. The BRET signal is determined as the ratio eYFP (530 nm)/Rluc (480 nm).
(§4) BRET principle with CAMYEL: For quantification of signaling initiated immediately downstream of receptor activation, we used the cAMP binding CAMYEL sensor to perform bioluminescence resonance energy transfer (BRET) based assays. In this assay we measure changes in intracellular cAMP levels in response to receptor activation. Activation of chemokine receptors lead to a decrease in cAMP through inhibition of adenylate cyclase (AC). In the current setup we initially add forskolin that stimulates AC directly to induce an increase in intracellular cAMP, and we then measure the ability of a ligand (chemokine) to counteract the forskolin-induced increase in cAMP. The cAMP sensor (CAMYEL cAMP sensor, YFP-Epac-RLuc) carries the donor Renilla luciferase (Rluc) and the acceptor YFP. Coelenterazine is a substrate for Rluc that will emit light at around 475 nm upon enzymatic cleavage catalyzed by Rluc. When Rluc and YFP are in close proximity, the energy from the emitted light from coelenterazine can be transferred to YFP, resulting in an excitation of YFP, leading to a BRET signal around 525 nm. EPAC is a cAMP binding protein that changes conformation upon cAMP binding. During low cAMP concentrations, Rluc and YFP are near each other, and a strong BRET signal at 525 nm is obtained. When cAMP levels increase, cAMP will bind to EPAC, creating a conformational change, separating Rluc and YFP, reducing the BRET ratio, and increasing the emission from Rluc at 475 nm. Thus, by measuring the ratio between the cAMP-bound (475 nm) and the cAMP-free (525 nm) state of CAMYEL we obtain a measure of receptor activation. […]

[3] = target: T2, CCR1 (Homo sapiens, UniProt P32246); assay: BRET CAMYEL cAMP sensor assay of ligand-induced Gαi signaling via CCR1; type: cell-based; conditions: n = 3; for Gαi signaling via CCR1 in DeltaSia and sC cells: CCL5 oligomerization variants experiment; for Gαi signaling via CCR1 compared to WT CCL5: HEK293 WT cells
T2 construct: expressed in transfected cells; host or cells: CHO-K1, CHO-pgsB618 (GAG-minus), HEK293 WT / DeltaSia / sC
T2 sequence (P32246 1-355): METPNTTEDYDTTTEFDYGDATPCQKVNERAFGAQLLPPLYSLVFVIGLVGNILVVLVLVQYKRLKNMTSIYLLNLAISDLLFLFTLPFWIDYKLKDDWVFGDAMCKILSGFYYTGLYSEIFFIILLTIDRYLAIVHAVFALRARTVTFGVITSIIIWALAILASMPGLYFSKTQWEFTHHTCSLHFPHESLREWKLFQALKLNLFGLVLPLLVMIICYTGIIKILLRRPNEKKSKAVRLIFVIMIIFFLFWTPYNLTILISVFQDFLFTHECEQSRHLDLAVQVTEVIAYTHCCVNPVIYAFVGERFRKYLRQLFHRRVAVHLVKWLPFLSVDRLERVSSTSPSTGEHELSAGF
Protocol: as §1, §2, §3, §4

[4] = system: CCR5-1like; assay: BRET CAMYEL Gαi signaling via chimeric receptor M1-CCR5-1like; type: cell-based, human; conditions: HEK293 DeltaSia and sC, n = 3
Source text: To finally determine if the lack of acidic amino acids in the CCR5 N-terminus can explain the dependency of this receptor on O-glycosylation for effective ligand interaction, we constructed a CCR5 receptor chimera, where the most acidic N-terminal region of CCR1 was inserted into the CCR5 N-terminus, creating the chimeric receptor CCR5-1like (Figure 7).
Figure 7 Receptor N-termini representing CCR1, CCR5, and the chimeric CCR5-1like. The CCR1 N-terminus contains a lot of acidic amino acids (outlined in red) in the form of aspartic acid (D) and glutamic acid (E), whereas CCR5 only contains a few. The chimeric receptor CCR5-1like that contains part of the CCR1 receptor N-terminus (ETTTDYDE) resembles CCR1 with regard to acidic amino acid content and spacing, but they are not the same.
as §3
as §4, with “nm.” for “nm. EPAC is a cAMP binding protein that changes conformation upon cAMP binding. During low cAMP concentrations, Rluc and YFP are near each other, and a strong BRET signal at 525 nm is obtained. When cAMP levels increase, cAMP will bind to EPAC, creating a conformational change, separating Rluc and YFP, reducing the BRET ratio, and increasing the emission from Rluc at 475 nm. Thus, by measuring the ratio between the cAMP-bound (475 nm) and the cAMP-free (525 nm) state of CAMYEL we obtain a measure of receptor activation.”

T1 sequence (P51681 whole entry): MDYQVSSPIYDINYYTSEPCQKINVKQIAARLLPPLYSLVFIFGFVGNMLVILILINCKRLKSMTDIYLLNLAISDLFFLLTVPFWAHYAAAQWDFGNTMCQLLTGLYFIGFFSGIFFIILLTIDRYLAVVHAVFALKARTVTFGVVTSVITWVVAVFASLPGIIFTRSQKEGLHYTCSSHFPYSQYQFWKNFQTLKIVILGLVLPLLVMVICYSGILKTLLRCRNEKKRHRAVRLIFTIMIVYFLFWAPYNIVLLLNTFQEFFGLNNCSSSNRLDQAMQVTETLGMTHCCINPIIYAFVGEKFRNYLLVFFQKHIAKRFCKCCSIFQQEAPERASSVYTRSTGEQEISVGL

## R24E: CCL2 with R24 substituted by glutamic acid (literature)
[1]
  reduction of CCL2 binding to CCR2 by substitution in CCL2: ≥ 1600 fold

## R24A: CCL2 with R24A substitution (literature)
[1]
  reduction of CCL2 binding to CCR2 by substitution in CCL2: ~ 30 fold

## CCL3: human chemokine from Peprotech, overall acidic
[2]
  Gαi signaling via CCR5 in DeltaSia cells compared to WT cells: drastically reduced
  Gαi signaling via CCR5 in sC cells compared to WT cells: drastically reduced
  Gαi signaling via M1-CCR5 in DeltaSia and sC cells compared to WT cells: drastically reduced
[3]; HEK293 DeltaSia and sC
  Gαi signaling via CCR1 in DeltaSia and sC cells compared to WT cells: persists in DeltaSia and sC to almost the same high level as observed in WT cells
[4]
  Gαi signaling via M1-CCR5-1like in DeltaSia and sC cells compared to WT cells: persists in DeltaSia and sC to almost the same high level as observed in WT cells

## K35E: CCL2 with K35 substituted by glutamic acid (literature)
[1]
  reduction of CCL2 binding to CCR2 by substitution in CCL2: ≥ 1600 fold

B1: E26A: mutant version of CCL5, obligate tetramer, expressed in E. coli (protein, UniProt P13501 24-91, looked up, variant E26A)
C-C motif chemokine 5: SPYSSDTTPCCFAYIARPLPRAHIKAYFYTSGKCSNPAVVFVTRKNRQVCANPEKKWVREYINSLEMS
[2]
  Gαi signaling via CCR5 in DeltaSia and sC cells: very low
  Gαi signaling via CCR5 compared to WT CCL5: WT-like signaling
[3]; HEK293 DeltaSia and sC
  Gαi signaling via CCR1 in DeltaSia and sC cells: remains high
[3]
  Gαi signaling via CCR1 compared to WT CCL5: WT-like signaling

B2: E66A: mutant version of CCL5, obligate dimer, expressed in E. coli (protein, UniProt P13501 24-91, looked up, variant E66A)
C-C motif chemokine 5: SPYSSDTTPCCFAYIARPLPRAHIKEYFYTSGKCSNPAVVFVTRKNRQVCANPEKKWVREYINSLAMS
modifications: also: obligate dimer
notes: mutant version of CCL5, obligate dimer, expressed in E. coli
[2]
  Gαi signaling via CCR5 in DeltaSia and sC cells: very low
  Gαi signaling via CCR5 compared to WT CCL5: WT-like signaling
[3]; HEK293 DeltaSia and sC
  Gαi signaling via CCR1 in DeltaSia and sC cells: remains high
[3]
  Gαi signaling via CCR1 compared to WT CCL5: WT-like signaling

B3: CCL8: human chemokine from Peprotech (protein, UniProt P80075 24-99, looked up)
C-C motif chemokine 8: QPDSVSIPITCCFNVINRKIPIQRLESYTRITNIQCPKEAVIFKTKRGKEVCADPKERWVRDSMKHLDQIFQNLKP
[2]
  Gαi signaling via CCR5 in DeltaSia cells compared to WT cells: drastically reduced
  Gαi signaling via CCR5 in sC cells compared to WT cells: drastically reduced
  Gαi signaling via M1-CCR5 in DeltaSia and sC cells compared to WT cells: drastically reduced
[4]
  Gαi signaling via M1-CCR5-1like in DeltaSia and sC cells compared to WT cells: persists in DeltaSia and sC to almost the same high level as observed in WT cells
